Among the data in paper PMC3817407 are fold repression values, retold here.

Experiment [1] concerns the target T1, ECF14_3200.
T1 chain: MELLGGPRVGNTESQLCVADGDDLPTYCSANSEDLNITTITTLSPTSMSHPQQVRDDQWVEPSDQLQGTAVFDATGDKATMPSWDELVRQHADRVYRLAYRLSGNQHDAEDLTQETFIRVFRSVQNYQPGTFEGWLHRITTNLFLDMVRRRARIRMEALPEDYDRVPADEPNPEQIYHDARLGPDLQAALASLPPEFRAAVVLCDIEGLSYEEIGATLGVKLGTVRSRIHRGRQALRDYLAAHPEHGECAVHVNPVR

The target of experiment [2] is T2, ECF17_1691.
T2 chain: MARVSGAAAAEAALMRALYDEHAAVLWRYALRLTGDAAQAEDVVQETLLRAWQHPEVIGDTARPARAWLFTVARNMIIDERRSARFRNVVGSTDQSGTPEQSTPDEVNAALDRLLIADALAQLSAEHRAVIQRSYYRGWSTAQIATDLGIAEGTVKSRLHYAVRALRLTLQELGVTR

Experiment [3] has as its target T3, ECF33_375.
T3 chain: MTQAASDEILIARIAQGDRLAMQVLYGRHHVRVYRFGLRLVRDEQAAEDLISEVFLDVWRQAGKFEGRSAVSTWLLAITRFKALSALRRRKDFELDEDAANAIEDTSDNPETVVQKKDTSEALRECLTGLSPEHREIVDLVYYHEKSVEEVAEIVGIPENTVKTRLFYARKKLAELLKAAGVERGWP

For experiment [4], the target named is T4, ECF33_423.
T4 chain: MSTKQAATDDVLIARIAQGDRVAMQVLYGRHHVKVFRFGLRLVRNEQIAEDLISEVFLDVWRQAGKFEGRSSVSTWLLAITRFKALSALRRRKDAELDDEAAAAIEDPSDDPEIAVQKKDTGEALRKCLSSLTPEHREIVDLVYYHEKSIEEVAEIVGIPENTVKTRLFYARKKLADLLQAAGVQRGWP

The target of experiment [5] is T5, ECF15_436.
T5 chain: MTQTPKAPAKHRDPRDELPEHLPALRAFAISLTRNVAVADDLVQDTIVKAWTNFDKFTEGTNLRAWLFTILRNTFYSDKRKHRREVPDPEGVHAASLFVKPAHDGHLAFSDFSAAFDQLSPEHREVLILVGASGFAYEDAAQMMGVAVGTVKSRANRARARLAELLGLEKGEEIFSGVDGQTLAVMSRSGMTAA

The target of experiment [6] is T6, ECF28_1040.
T6 chain: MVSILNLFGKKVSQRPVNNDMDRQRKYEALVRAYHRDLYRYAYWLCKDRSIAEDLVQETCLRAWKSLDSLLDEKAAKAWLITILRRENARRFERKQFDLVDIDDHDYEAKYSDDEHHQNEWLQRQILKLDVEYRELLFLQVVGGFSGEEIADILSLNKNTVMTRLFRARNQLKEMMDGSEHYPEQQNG

For experiment [7], the target named is T7, ECF04_1609.
T7 chain: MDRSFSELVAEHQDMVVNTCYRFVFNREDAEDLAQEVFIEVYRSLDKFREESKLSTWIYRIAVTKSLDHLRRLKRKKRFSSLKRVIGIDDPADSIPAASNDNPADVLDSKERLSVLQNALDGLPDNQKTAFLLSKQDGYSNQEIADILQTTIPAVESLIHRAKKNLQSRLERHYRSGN

Experiment [8] has as its target T8, ECF22_1147.
T8 chain: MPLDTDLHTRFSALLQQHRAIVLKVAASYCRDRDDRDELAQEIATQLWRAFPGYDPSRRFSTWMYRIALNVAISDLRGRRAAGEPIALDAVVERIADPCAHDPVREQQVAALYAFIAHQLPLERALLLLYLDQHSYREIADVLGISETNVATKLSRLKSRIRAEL

In experiment [9] the target is T9, ECF28_1088.
T9 chain: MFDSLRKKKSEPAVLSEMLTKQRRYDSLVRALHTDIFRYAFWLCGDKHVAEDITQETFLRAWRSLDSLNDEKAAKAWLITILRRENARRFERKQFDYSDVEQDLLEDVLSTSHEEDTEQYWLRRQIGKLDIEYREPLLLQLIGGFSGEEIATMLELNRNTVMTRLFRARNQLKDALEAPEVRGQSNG

Experiment [10] concerns the target T10, ECF37_2513.
T10 chain: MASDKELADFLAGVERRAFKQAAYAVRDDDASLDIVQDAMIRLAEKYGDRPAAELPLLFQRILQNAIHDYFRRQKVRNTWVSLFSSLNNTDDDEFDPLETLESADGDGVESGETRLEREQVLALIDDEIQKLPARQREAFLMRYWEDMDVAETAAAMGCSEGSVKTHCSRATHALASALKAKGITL

Experiment [11] deals with T11, ECF16_3622.
T11 chain: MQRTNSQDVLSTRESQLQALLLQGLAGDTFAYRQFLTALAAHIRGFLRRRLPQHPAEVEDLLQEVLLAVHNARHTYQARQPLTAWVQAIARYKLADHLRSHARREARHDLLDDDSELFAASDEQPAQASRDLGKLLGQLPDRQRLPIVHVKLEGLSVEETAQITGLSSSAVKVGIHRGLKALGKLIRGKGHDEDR

The target in experiment [12] is T12, ECF15_524.
T12 chain: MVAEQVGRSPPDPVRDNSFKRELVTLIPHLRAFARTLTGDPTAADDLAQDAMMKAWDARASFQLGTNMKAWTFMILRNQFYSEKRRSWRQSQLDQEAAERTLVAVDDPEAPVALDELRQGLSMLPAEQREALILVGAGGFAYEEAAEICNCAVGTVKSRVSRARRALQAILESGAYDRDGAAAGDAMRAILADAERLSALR

For experiment [13], the target named is T13, ECF14_1324.
T13 chain: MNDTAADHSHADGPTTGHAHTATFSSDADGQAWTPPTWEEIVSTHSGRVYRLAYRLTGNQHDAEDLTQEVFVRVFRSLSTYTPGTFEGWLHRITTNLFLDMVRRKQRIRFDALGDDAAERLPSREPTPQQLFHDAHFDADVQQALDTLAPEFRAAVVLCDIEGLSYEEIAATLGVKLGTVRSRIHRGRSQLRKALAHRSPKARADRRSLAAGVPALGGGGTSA

The target of experiment [14] is T14, ECF38_1322.
T14 chain: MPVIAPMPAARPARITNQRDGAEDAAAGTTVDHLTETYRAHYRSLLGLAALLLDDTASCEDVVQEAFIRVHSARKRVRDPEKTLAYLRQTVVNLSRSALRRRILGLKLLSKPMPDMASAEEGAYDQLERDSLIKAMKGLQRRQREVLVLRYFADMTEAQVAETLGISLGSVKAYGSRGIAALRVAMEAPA

B1: AS22_4450 (protein)
chain: MELDDMKHAWQTLEQRLDQQAAQTGQLLGVVHEETVRSSLRPLWVAQTAQLLCALALAIVSARSWIPHTDQPVAVIGGVLLQAWCMALAISAMVQLQLLTQFNVAGPLLRTQHALARLRRWRTRVAPWLGVAFWVLWIAVADALWRALTGQTLPTDWLVLNLLVGVAGGIGTWLGFRRLQRAQHPWLERIDRAHAGTGVIRAERMLEEIARFQRD
For B1, the fold repression in [1] stood at 1.94; in experiment [2] it was 1.52; in experiment [3], 1.4; in experiment [4] it was 1.24; in [5], 1.41; in experiment [6], 1.4. Moreover, the fold repression worked out at 1.43 in experiment [7]; 5.73 in experiment [8]; 1.18 in [9]; 1.51 in experiment [10]; 1.79 in experiment [11]; 1.53 in experiment [12]. The fold repression in experiment [13] stood at 2.85; in experiment [14], 1.78.

B2: AS25_1643_cl43 (protein)
chain: MTTDSNFNDPCRRQFSRDLPQKMARHTNEATGAMDMVKRDRFELLSAYLGGEVTAAERRQVEDWPANDVAVQRLYSRLLKLRQGIRTMPIPTAQQSPETTAEQVFAKVNRRSRLAWKLGGAAVAACVIGAVTNWLPGRQTGIPQLAQQPQEQPTQAVTTPDALPMIALNNPVIEIPKAAVASPTKFIQPQPQLGEIPPDIN
For the molecule B2, the fold repression in experiment [1] stood at 5.41; in experiment [2], 1.92; in experiment [3], 0.709; in experiment [4], 1.23; in experiment [5], 1.2; in experiment [6], 1.09. Further, the fold repression in experiment [7] was found to be 2.44; in experiment [8], 5.45; in experiment [9] it was 1.48; in experiment [10] it was 1.9; in experiment [11], 2.26; in experiment [12], 1.18. Further, the fold repression in [13] came to 1.77; in experiment [14], 0.931.

B3: AS25_1645 (protein)
chain: MNESFSQRQTDGDRRRGGDLEMKKNHTSHQHHTDSETPMGHNFEQFQRLSAYFDGEATPAERKEIQHLLDTDPQVKQQYQQLRQLKQALQLLPIPTSISAQYLGQRVLARLRRSQLRTLSLWGSGAIAALFVAGVMGQMPRLNFDRFAKNDPDQQPTAALVETSPQGEEALVVALNRPVLQIPKLATTESP
B3: the fold repression in experiment [1] amounted to 14.2; in experiment [2] it was 4.24; in experiment [3] it was 3.29; in [4], 4.92; in experiment [5], 8.62; in experiment [6], 2.95. The fold repression was 6.4 in experiment [7]; 7.04 in experiment [8]; 3.89 in experiment [9]; 7.52 in experiment [10]; 6.9 in [11]; 6.73 in experiment [12]. Besides, the results for the fold repression in experiment [13] and in experiment [14] were 18.7 and 3.98, respectively.

B4: AS20_992 (protein)
chain: MTPERFVHLADAYGADLQRWPSAERAAAQALLDCGDAQAVAALRQAHWLDSQLDRYQVPAPSPALAQRIIAAAQQPGAPFWSRYAGWLASLGWVGVGLTGVAAGMLAVALSLPLSTSAEALPSVFDQSDAEFVLSINAEEAEQ
For B4, the fold repression in experiment [1] was 2.04; in [2] it was 2.05; in experiment [3] it was 1.04; in experiment [4] it was 1.32; in experiment [5], 1.32; in experiment [6] it was 2.12. Besides, the fold repression worked out at 1.95 in [7]; 2.47 in experiment [8]; 2.27 in experiment [9]; 1.98 in experiment [10]; 1.71 in experiment [11]; 1.58 in [12]. Further, the fold repression in [13] was 1.64; in [14], 1.72.

B5: AS22_1147 (protein)
chain: MELDDIAVAWRSLEQRLDQHAALAGQVLGDLRSHAARAHLRPLWLSQSAQLLCAIALSGLVAHSWLAFPEQAAAIVGGVLLQIWCVALAASAARQLWLLSQLDFARPLLQTQRALAQLRRWRTRVAPWLGVAFWVLWVAVADAAWRALTGRSLPYAWLLCNLLVGVLGGIGTWLGYRRLQRSGHPWLERLDTVHAGRSVARTETLLEQIARFQRE
As to B5, the fold repression in experiment [1] was determined as 5.04; in [2], 1.74; in experiment [3], 1.26; in experiment [4] it was 1.76; in experiment [5], 3.01; in experiment [6], 1.78. For the same molecule, the fold repression in [7] is 3.52; in experiment [8], 6.19; in experiment [9], 2.19; in [10], 3.66; in experiment [11], 2.91; in experiment [12], 2.65. The fold repression is 4.18 in [13] and 1.99 in [14].
